The source of these data is paper PMC4920197, “SMN and coilin negatively regulate dyskerin association with telomerase RNA” (Biology Open, 2016).

This assay deals with T1, GFP-tagged SMN E134K (human, UniProt Q16637 1-294, E134K).
T1 construct: survivor of motor neuron protein (SMN) with the clinically defined SMA patient mutation E134K, made from GFP-SMN; source: HeLa, transfected (FuGENE HD), in lysate
In words: co-IP; HeLa cells transfected 24 h with GFP vector or GFP-tagged coilin or SMN constructs; lysate in mRIPA buffer immunoprecipitated with anti-GFP antibody; endogenous dyskerin or NAF1 detected by western blot. The conditions noted are these: partners not purified. Background: In western blotting, separated proteins are transferred to a membrane and probed.

T1 sequence (Q16637 whole entry E134K): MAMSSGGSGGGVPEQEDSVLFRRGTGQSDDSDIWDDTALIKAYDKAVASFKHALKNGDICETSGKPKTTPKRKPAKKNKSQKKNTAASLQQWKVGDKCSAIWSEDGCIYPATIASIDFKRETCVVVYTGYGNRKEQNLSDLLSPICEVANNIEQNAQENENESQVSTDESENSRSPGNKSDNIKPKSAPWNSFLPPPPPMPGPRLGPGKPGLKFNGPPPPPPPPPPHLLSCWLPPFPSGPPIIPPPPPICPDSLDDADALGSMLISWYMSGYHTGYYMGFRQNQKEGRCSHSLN

B1: dyskerin (natural protein, human (endogenous in HeLa), UniProt O60832 1-514, looked up)
chain: MADAEVIILPKKHKKKKERKSLPEEDVAEIQHAEEFLIKPESKVAKLDTSQWPLLLKNFDKLNVRTTHYTPLACGSNPLKREIGDYIRTGFINLDKPSNPSSHEVVAWIRRILRVEKTGHSGTLDPKVTGCLIVCIERATRLVKSQQSAGKEYVGIVRLHNAIEGGTQLSRALETLTGALFQRPPLIAAVKRQLRVRTIYESKMIEYDPERRLGIFWVSCEAGTYIRTLCVHLGLLLGVGGQMQELRRVRSGVMSEKDHMVTMHDVLDAQWLYDNHKDESYLRRVVYPLEKLLTSHKRLVMKDSAVNAICYGAKIMLPGVLRYEDGIEVNQEIVVITTKGEAICMAIALMTTAVISTCDHGIVAKIKRVIMERDTYPRKWGLGPKASQKKLMIKQGLLDKHGKPTDSTPATWKQEYVDYSESAKKEVVAEVVKAPQVVAEAAKTAKRKRESESESDETPPAAPQLIKKEKKKSKKDKKAKAGLESGAEPGDGDSDTTKKKKKKKKAKEVELVSE
notes: dyskerin, endogenous in HeLa cells; also called telomerase and box H/ACA scaRNP core protein dyskerin; source: endogenous, HeLa lysate
As to B1, the “decrease of dyskerin in the SMN complex relative to WT SMN” value is roughly 50%.
